6 molecules from paper PMC9137774, “The ArsH Protein Product of the Paracoccus denitrificans ars Operon Has an Activity of Organoarsenic Reductase and Is Regulated by a Redox-Responsive Repressor” (Antioxidants, 2022) can be followed below.

For data set [1], the target named is Paracoccus denitrificans ArsH (Pden_3133 protein), recombinant N-His6-ArsH (Paracoccus denitrificans). Nature of the data set: crystal structure; X-ray, 2.6 Å; sitting-drop vapor diffusion at 25 °C; molecular replacement with S. flexneri ArsH; four monomers in the asymmetric unit; interfaces analysed with PISA.
Data set [2] deals with NC(=O)C1=CN([C@@H]2O[C@H](COP(=O)(O)OP(=O)(O)OC[C@H]3O[C@@H](n4cnc5c(N)ncnc54)[C@H](OP(=O)(O)O)[C@@H]3O)[C@@H](O)[C@H]2O)C=CC1. Nature of the data set: purified protein. The settings on record: co-substrate FMN (varied), 0.1 M sodium phosphate pH 7.0, 30 °C, sequential ternary-complex mechanism.
For data set [3], the system named is Cc1cc2nc3c(=O)[nH]c(=O)nc-3n(C[C@H](O)[C@H](O)[C@H](O)COP(=O)(O)O)c2cc1C. Nature of the data set: purified protein. Conditions: NADPH varied 5-150 μM, 0.1 M sodium phosphate pH 7.0, 30 °C, sequential ternary-complex mechanism.
In data set [4] the target is Paracoccus denitrificans ArsR1 (product of pden_3136), recombinant with N-terminal hexahistidine tag (Paracoccus denitrificans). Nature of the data set: SEC; Superose 12, 10 mM MOPS/0.1 M NaCl/15% glycerol pH 7.5, 0.5 mL/min; 500 μL of 40 μM ArsR1 loaded, untreated; calibrated with ribonuclease A, chymotrypsinogen A, ovalbumin and albumin. A general note: Size exclusion chromatography separates by hydrodynamic size, large species first.

Data set [5] deals with T1, ArsR1 (Paracoccus denitrificans, UniProt A1B6S3).
T1 construct: gene Pden_3136
Nature of the data set: size-exclusion chromatography: dimer to monomer; also EMSA and fluorescence anisotropy: release from operator DNA. Type of data set: binding. Conditions: 0.1 mM arsenite, 10 mM MOPS/0.1 M NaCl/15% glycerol pH 7.5.

For data set [6], the target named is T2, ArsR2 (Paracoccus denitrificans, UniProt A1B7C2 1-120).
T2 sequence: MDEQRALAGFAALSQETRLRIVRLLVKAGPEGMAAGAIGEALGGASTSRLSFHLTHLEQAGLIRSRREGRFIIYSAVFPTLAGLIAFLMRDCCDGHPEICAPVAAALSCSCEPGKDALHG
Nature of the data set: fluorescence anisotropy; Anisotropy: 10 mM MOPS, 0.1 M NaCl, 15% glycerol, pH 7.5 (Methods; Figure 9 legend says pH 7.0), 30 °C, 25 nM DNA; EMSA: 10 mM Tris-HCl, 50 mM NaCl, 0.5 mM EDTA, pH 8.0, room temperature, 10 µM DNA and 10 µM ArsR. Conditions: protein: recombinant; tags: N-terminal His6 (pET100/D-TOPO); chain copies: 2; label: 5'-FAM on strand 1; blunt. (Fluorescence polarisation rises when a labelled molecule tumbles more slowly, as on binding a larger partner.)

For data set [7], the target named is T3, ArsR1 (Paracoccus denitrificans, UniProt A1B6S3 1-119).
T3 sequence: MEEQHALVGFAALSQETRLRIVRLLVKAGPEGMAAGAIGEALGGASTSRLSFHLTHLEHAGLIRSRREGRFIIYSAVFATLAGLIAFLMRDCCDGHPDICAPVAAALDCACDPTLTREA
The description is as above. The settings on record: protein: recombinant; tags: N-terminal His6 (pET100/D-TOPO); chain copies: 2; label: 5'-FAM on strand 1; blunt.

Broadly, the stoichiometry N is the number of molecules, sites or subunits per partner or assembly. With “Paracoccus denitrificans ArsH (Pden_3133 protein), recombinant N-His6-ArsH (from UniProt A0A9X7N4T4 1-238) (enzyme)”, in data set [1], the stoichiometry N came out at 4. By Km is commonly meant the concentration of substrate that gives half-maximal velocity. Broadly, the kcat is the maximal rate divided by the concentration of active sites. Take “ArsH (Pden_3133; N-His6-ArsH) (Paracoccus denitrificans PD1222)”: in data set [2], the Michaelis constant (Km) came to 12 ± 2 µM and the kcat worked out at 12.6 ± 0.4 s⁻¹. Besides, in data set [3], the Km came to 9.3 ± 0.7 µM and the catalytic constant (kcat) was 12.6 ± 0.4 s⁻¹. For “Paracoccus denitrificans ArsR1 (product of pden_3136), recombinant with N-terminal hexahistidine tag (natural protein)”, in data set [4], the stoichiometry N turned out to be 2.

In the case of `O[As](O)O` [sodium arsenite], the “size-exclusion chromatography: dimer to monomer; also EMSA and fluorescence anis” value in data set [5] is “arsenite or diamide-treated ArsR eluted at the monomer size”.

B1: PDNA2 (dsDNA)
DNA 1: ATCAACATATCTTGAGAGGTTGATTCG
DNA 2: CGAATCAACCTCTCAAGATATGTTGAT
As usually defined, the Kd is the constant that tells how readily two partners part at equilibrium. B1: the Kd in data set [6] turned out to be 140 ± 10 nM; in data set [7], 26 ± 4 nM.

B2: PDNA1 (dsDNA)
DNA 1: CTCAACATATCTTGAGAGGTTGATTCG
DNA 2: CGAATCAACCTCTCAAGATATGTTGAG
As for B2, the values for the dissociation constant Kd in data set [6] and in data set [7] were 130 ± 20 nM and 9 ± 1 nM, respectively.
